Experimental data from US10919943B2, “Mutant proteins enabling agrochemical control of plant gene expression” (The Regents of the University of California, priority 2016, dated 2021).
Where a chain is given by its changes, count along the chain named. In names and notes the source's numbering stands.

T1: PYR1 (Arabidopsis thaliana, UniProt O49686)
T1 construct: expressed in transfected cells; host or cells: S. cerevisiae strain Y190
T1 sequence (O49686 1-191): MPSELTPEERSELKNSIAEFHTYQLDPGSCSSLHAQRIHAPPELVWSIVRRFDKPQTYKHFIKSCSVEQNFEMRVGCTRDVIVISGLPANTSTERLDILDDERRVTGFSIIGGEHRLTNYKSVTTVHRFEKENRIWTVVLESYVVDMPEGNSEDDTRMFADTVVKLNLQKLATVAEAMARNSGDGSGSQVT

B1: I383G: HAB1 mutant (protein, listed as Arabidopsis thaliana)
chain: MEEMTPAVAMTLSLAANTMCESSPVEITQLKNVTDAADLLSDSENQSFCNGGTECTMEDVSELEEVGEQDLLKTLSDTRSGSSNVFDEDDVLSVVEDNSAVISEGLLVVDAGSELSLSNTAMEIDNGRVLATAIIVGESSIEQVPTAEVLIAGVNQDTNTSEVVIRLPDENSNHLVKGRSVYELDCIPLWGTVSIQGNRSEMEDAFAVSPHFLKLPIKMLMGDHEGMSPSLTHLTGHFFGVYDGHGGHKVADYCRDRLHFALAEEIERIKDELCKRNTGEGRQVQWDKVFTSCFLTVDGEIEGKIGRAVVGSSDKVLEAVASETVGSTAVVALVCSSHIVVSNCGDSRAVLFRGKEAMPLSVDHKPDREDEYARIENAGGKVGQWQGARVFGVLAMSRSIGDRYLKPYVIPEPEVTFMPRSREDECLILASDGLWDVMNNQEVCEIARRRILMWHKKNGAPPLAERGKGIDPACQAAADYLSMLALQKGSKDNISIIVIDLKAQRKFKTRT
B2: E323L: HAB1 mutant (protein, UniProt Q9CAJ0 23-511, looked up, variant E323L)
Protein phosphatase 2C 16: SPVEITQLKNVTDAADLLSDSENQSFCNGGTECTMEDVSELEEVGEQDLLKTLSDTRSGSSNVFDEDDVLSVVEDNSAVISEGLLVVDAGSELSLSNTAMEIDNGRVLATAIIVGESSIEQVPTAEVLIAGVNQDTNTSEVVIRLPDENSNHLVKGRSVYELDCIPLWGTVSIQGNRSEMEDAFAVSPHFLKLPIKMLMGDHEGMSPSLTHLTGHFFGVYDGHGGHKVADYCRDRLHFALAEEIERIKDELCKRNTGEGRQVQWDKVFTSCFLTVDGEIEGKIGRAVVGSSDKVLEAVASLTVGSTAVVALVCSSHIVVSNCGDSRAVLFRGKEAMPLSVDHKPDREDEYARIENAGGKVIQWQGARVFGVLAMSRSIGDRYLKPYVIPEPEVTFMPRSREDECLILASDGLWDVMNNQEVCEIARRRILMWHKKNGAPPLAERGKGIDPACQAAADYLSMLALQKGSKDNISIIVIDLKAQRKFKTRT
B3: I383W: HAB1 mutant (protein, UniProt Q9CAJ0 23-511, looked up, variant I383W)
Protein phosphatase 2C 16: B2 Protein phosphatase 2C 16 with L301E, I361W
B4: I383E: HAB1 mutant (protein, UniProt Q9CAJ0 23-511, looked up, variant I383E)
Protein phosphatase 2C 16: B2 Protein phosphatase 2C 16 with L301E, I361E
B5: W385L: HAB1 mutant (protein, UniProt Q9CAJ0 23-511, looked up, variant W385L)
Protein phosphatase 2C 16: B2 Protein phosphatase 2C 16 with L301E, W363L
B6: I383R: HAB1 mutant (protein, UniProt Q9CAJ0 23-511, looked up, variant I383R)
Protein phosphatase 2C 16: B2 Protein phosphatase 2C 16 with L301E, I361R
B7: K381W: HAB1 mutant (protein, UniProt Q9CAJ0 23-511, looked up, variant K381W)
Protein phosphatase 2C 16: B2 Protein phosphatase 2C 16 with L301E, K359W
B8: W385Y: HAB1 mutant (protein, UniProt Q9CAJ0 23-511, looked up, variant W385Y)
Protein phosphatase 2C 16: B2 Protein phosphatase 2C 16 with L301E, W363Y
B9: W385N: HAB1 mutant (protein, UniProt Q9CAJ0 23-511, looked up, variant W385N)
Protein phosphatase 2C 16: B2 Protein phosphatase 2C 16 with L301E, W363N
B10: I383Q: HAB1 mutant (protein, UniProt Q9CAJ0 23-511, looked up, variant I383Q)
Protein phosphatase 2C 16: B2 Protein phosphatase 2C 16 with L301E, I361Q
B11: W385M: HAB1 mutant (protein, UniProt Q9CAJ0 23-511, looked up, variant W385M)
Protein phosphatase 2C 16: B2 Protein phosphatase 2C 16 with L301E, W363M
B12: I383P: HAB1 mutant (protein, UniProt Q9CAJ0 23-511, looked up, variant I383P)
Protein phosphatase 2C 16: B2 Protein phosphatase 2C 16 with L301E, I361P
B13: I383T: HAB1 mutant (protein, UniProt Q9CAJ0 23-511, looked up, variant I383T)
Protein phosphatase 2C 16: B2 Protein phosphatase 2C 16 with L301E, I361T
B14: W385P: HAB1 mutant (protein, UniProt Q9CAJ0 23-511, looked up, variant W385P)
Protein phosphatase 2C 16: B2 Protein phosphatase 2C 16 with L301E, W363P
B15: I383Y: HAB1 mutant (protein, UniProt Q9CAJ0 23-511, looked up, variant I383Y)
Protein phosphatase 2C 16: B2 Protein phosphatase 2C 16 with L301E, I361Y
B16: W385R: HAB1 mutant (protein, UniProt Q9CAJ0 23-511, looked up, variant W385R)
Protein phosphatase 2C 16: B2 Protein phosphatase 2C 16 with L301E, W363R
B17: W385Q: HAB1 mutant (protein, UniProt Q9CAJ0 23-511, looked up, variant W385Q)
Protein phosphatase 2C 16: B2 Protein phosphatase 2C 16 with L301E, W363Q
B18: W385C: HAB1 mutant (protein, UniProt Q9CAJ0 23-511, looked up, variant W385C)
Protein phosphatase 2C 16: B2 Protein phosphatase 2C 16 with L301E, W363C
B19: I383S: HAB1 mutant (protein, UniProt Q9CAJ0 23-511, looked up, variant I383S)
Protein phosphatase 2C 16: B2 Protein phosphatase 2C 16 with L301E, I361S
B20: W385T: HAB1 mutant (protein, UniProt Q9CAJ0 23-511, looked up, variant W385T)
Protein phosphatase 2C 16: B2 Protein phosphatase 2C 16 with L301E, W363T
B21: W385D: HAB1 mutant (protein, UniProt Q9CAJ0 23-511, looked up, variant W385D)
Protein phosphatase 2C 16: B2 Protein phosphatase 2C 16 with L301E, W363D
B22: W385A: HAB1 mutant (protein, UniProt Q9CAJ0 23-511, looked up, variant W385A)
Protein phosphatase 2C 16: B2 Protein phosphatase 2C 16 with L301E, W363A
B23: W385V: HAB1 mutant (protein, UniProt Q9CAJ0 23-511, looked up, variant W385V)
Protein phosphatase 2C 16: B2 Protein phosphatase 2C 16 with L301E, W363V
B24: I383H: HAB1 mutant (protein, UniProt Q9CAJ0 23-511, looked up, variant I383H)
Protein phosphatase 2C 16: B2 Protein phosphatase 2C 16 with L301E, I361H
B25: I383K: HAB1 mutant (protein, UniProt Q9CAJ0 23-511, looked up, variant I383K)
Protein phosphatase 2C 16: B2 Protein phosphatase 2C 16 with L301E, I361K
B26: W385S: HAB1 mutant (protein, UniProt Q9CAJ0 23-511, looked up, variant W385S)
Protein phosphatase 2C 16: B2 Protein phosphatase 2C 16 with L301E, W363S
B27: I383D: HAB1 mutant (protein, UniProt Q9CAJ0 23-511, looked up, variant I383D)
Protein phosphatase 2C 16: B2 Protein phosphatase 2C 16 with L301E, I361D
B28: I383N: HAB1 mutant (protein, UniProt Q9CAJ0 23-511, looked up, variant I383N)
Protein phosphatase 2C 16: B2 Protein phosphatase 2C 16 with L301E, I361N

Molecular target: T1, PYR1
Experiment: Yeast two hybrid of pACT-HAB1 site saturation mutants with pBD-PYR1 on 10 μM ABA, β-galactosidase staining
Format: cell-based
Set-up: key: x: Mutations in HAB1 that disrupt HAB1 interaction with PYR1
Conditions: S. cerevisiae Y190, 10 μM ABA; dead = lack of detectable staining in comparison to wild type control
Text: To systematically define mutations in HAB1 that disrupt its binding to PYR1, we used site saturation mutagenesis to create a collection all possible single amino acid substitutions in 20 residues lining the PYR1 binding interface, and then assayed the ability of each mutant to bind PYR1 using the yeast two hybrid assay described above. We targeted the following residues for mutagenesis: R199, 5200, E201, E203, H245, G246, G247, S322, E323, T324, K381, I383, Q384, W385, Q386, R389, F391, G392, V393, and Y404. To create the collection of mutations, mutagenic “NNK” site directed mutagenesis primers were synthesized for each of the 20 positions and the primers used in QuickChange site-directed mutagenesis reactions using a previously described pACT-HAB1 template (Park et al., 2009). We note that this clone uses a HAB1 cDNA lacking its three N-terminal amino acids. The reaction products were digested with DpnI, and transformed into competent Escherichia coli DH5α cells and plasmid DNA for 96 colonies per site was isolated using Bioneer AccuPrep® Plasmid Mini Extraction Kit (Alameda, Calif.) and sequenced to identify mutants. This process identified most of the 19 desired mutations per target site; the remaining mutations were constructed directly using specific mutagenic primers. To interrogate the effects of the mutations on PYR1-HAB1 interactions, the mutant clones were individually transformed into S. cerevisiae strain Y190 containing pBD-PYR1 (Park et al., 2009). Yeast transformants were selected for the presence of plasmids on selective SD (-Leu,-Trp) plates and then spotted onto SD (-Leu,-Trp) agar plates supplemented with 10 μM ABA. After incubating the test plates at 30° C. for two days, the colonies were lysed with chloroform and stained to reveal […] expression levels. “Dead” mutants were defined by lack of detectable staining in comparison to a wild type pBD-PYR1/pACT-HAB1 control. This screening effort defined 163 mutations that disrupt the ABA-induced PYR1/HAB1 interaction (Table 2).

| Molecule | Mutations in HAB1 that disrupt HAB1 interaction with PYR1 |
| --- | --- |
| B1 | x |
| B2 | x |
| B3 | x |
| B4 | x |
| B5 | x |
| B6 | x |
| B7 | x |
| B8 | x |
| B9 | x |
| B10 | x |
| B11 | x |
| B12 | x |
| B13 | x |
| B14 | x |
| B15 | x |
| B16 | x |
| B17 | x |
| B18 | x |
| B19 | x |
| B20 | x |
| B21 | x |
| B22 | x |
| B23 | x |
| B24 | x |
| B25 | x |
| B26 | x |
| B27 | x |
| B28 | x |
